According to the supplement of paper PMC9170038:

Tested on: MS2 coat protein
Experiment: apparent KD of MS2 coat protein; designed switch direction (-1 OFF switch, 1 ON switch): -1; higher = weaker reporter binding
Procedure, shortened: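 SNAP-549-labelled MS2 coat protein was titrated, doubling from 0.7 or 1.5 nM to 3 µM, over designed RNA switches transcribed on Illumina chips by stalled E. coli RNA polymerase. Runs were done without input, with 200 uM small-molecule ligand, or with an oligonucleotide input. Apparent KD is the per-design median over clusters of curve-fitted normalised fluorescence.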

[1] = Eterna round: R95, input ligand: microRNA oligo, concentration not stated
[2] = input ligand: microRNA oligo, concentration not stated
[3] = Eterna round: R95, input ligand: FMN 200 uM
[4] = Eterna round: R95, input ligand: none

Sequence | apparent KD of MS2 coat protein (input ligand: FMN 200 uM) | apparent KD of MS2 coat protein (input ligand: none) | apparent KD of MS2 coat protein [1] | also measured
GCCGUACAAGGAUAUACAUGAGGAUCACCCAUGUGUCUCCUCGAGAGCAAACGGCUCUGUAGAAGGUGUCGUAA [EX3 C.20] (Eterna round: R97, puzzle: Exclusion 3) | 16.5 nM | 15.6 nM |  | 
AUCAUGUAAGGAUAUCUUACAUGUGACUUCGGUCACAGUUAAGAGAAGGUACAUGAGGAUCACCCAUGUAUAAC [Ex4-3: 37] (puzzle: Exclusion 4) |  |  | 25.3 nM | 
GCCUACCAGCUAGGAUAUGCAGUACAGUAAAAUGUAGAAGGAGCACGAUCCAGACAUGAGGAUCACCCAUGUGGGCGGCAGGCA [Raartive] (Eterna round: R96, puzzle: Exclusion NG 1) | 19.7 nM | 22.8 nM |  | apparent KD of MS2 coat protein [2]: 17 nM
UCGCUGCGAGGAUAUACAUGAGGAUCACCCAUGUACGGGUCCGGGUCUUCGUCCAUUGGUAGAAGGCGCAGUGA [JL Laongeedie mod 7] (puzzle: Exclusion 3) |  |  | 22.5 nM | 
UUUGUCUGUGUGAGGAUAUACUUGUUUGGGUUUUUGUAGAAGGCACAUGAGGAUCACCCAUGUAUUUUGUCGUG [JR_BME4_Sub018] (puzzle: Brourd's mod of Exclusion 4) |  |  | 36.7 nM | 
GUCGCAAUGCAGGAUAUCCUGCUAUUCAAGGGAGGAGAAGGGCAGACAUGAGGAUCACCCAUGUGGUCCGUGCC [Eternabot (L1) Solution 3] (Eterna round: R97, puzzle: Exclusion 6) | 160 nM | 170 nM |  | 
AAUAACAAGCAGAUCCUAAACAUGAGGAUCACCCAUGUGCUCGUCUUGUUGUACUAUCACUCGAAAGUGAUAGUACA (Eterna round: R97, puzzle: Sensor, turn-off variant 1) | 90.1 nM | 104 nM |  | 
GAUUAUGCGAGCUUUAGGGACAUGAGGAUCACCCAUGUUCGUCUUAUUGAUCUAGGUACGCUGACGUACCUAGAUCU [JL-sv1-2.35 Brourd mod] (puzzle: Sensor v3, turn-off variant 1) |  |  | 33.7 nM | apparent KD of MS2 coat protein [3]: 21.9 nM; apparent KD of MS2 coat protein [4]: 21.8 nM
CUCCCACAUGAGGAUCACCCAUGUGAGGAUAUGGAGCGCGACCGCGCGGUCGCGUACACCAGAAGGCGCAUGAU [1st #81] (Eterna round: R97, puzzle: Exclusion 1) | 24.1 nM | 21.1 nM |  | 
GUAGAGUAAGGAUAUUGAGAAUAGGAUAGAAUGGUUAGAAUCAAGAAGGUACAUGAGGAUCACCCAUGUAAUGU [Excluse me!!!! 6 - Jieux - Exclusion 4] (puzzle: Exclusion 4) |  |  | 22.2 nM | apparent KD of MS2 coat protein [3]: 16.8 nM; apparent KD of MS2 coat protein [4]: 19.7 nM
AUAAUGUGAGGAUAUCAGUCGUACAGCUGCGGCUGUACGACUGAGAAGGCACAUGAGGAUCACCCAUGUGGUCA [E4/5-A3] (Eterna round: R97, puzzle: Exclusion 4) | 70.7 nM | 672 nM |  | 
GUAGAGUAAGGAUAUGCAGAAUAGGAUAGAAUGGUUAGAAUGUAGAAGGUACAUGAGGAUCACCCAUGUAAUGU [Excluse me!!!! 10 - Jieux - Exclusion 4] (puzzle: Exclusion 4) |  |  | 22.7 nM | apparent KD of MS2 coat protein [3]: 20.8 nM; apparent KD of MS2 coat protein [4]: 22.7 nM
UUCUUGGCAGGAUAUGCUCUUUUAGACAUGAGGAUCACCCAUGUGUUUAUUCUUUUUUUUGCAGAAGGGCCUUAAU [JR_E5_Sub044] (puzzle: Exclusion 5) |  |  | 87.9 nM | 
AAAACGUCAGGAUAUCCAAUAUAUGACAUGAGGAUCACCCAUGUUUCCACUCGUACCUCCGGAGAAGGGACUUAUA [Ex5 #83] (Eterna round: R97, puzzle: Exclusion 5) | 43.9 nM | 46.2 nM |  | 
GGUACUAACACGAGAGUGUUAGUACUAUAAGCUUGUGUUACAUGAGGAUCACCCAUGUCCUCAUAAGCUCGUCUUAU [Mat - Sensor v3 - Turn-off var 2 - D76] (puzzle: Sensor v3, turn-off variant 2) |  |  | 89.6 nM | apparent KD of MS2 coat protein [3]: 137 nM; apparent KD of MS2 coat protein [4]: 156 nM
AGUGUGAGGCAGGAUAUGCUAUAUGUAAGUAAUGCAGAAGGGUCUACAUGAGGAUCACCCAUGUGUGCGGUUGA [Ex6 #9] (Eterna round: R97, puzzle: Exclusion 6) | 797 nM | 116 nM |  | 
AAAGCACAUGAGGAUCACCCAUGUGAGGAUAUACAGAAAAUCUCGUUUACGAGGACUCGUAGAAGGCGCAGUGC [Eternabot (L2) Solution 19] (Eterna round: R97, puzzle: Exclusion 1) | 20.9 nM | 21.3 nM |  | 
UUUAUGUCAGGAUAUGAGGAGUAGAACAAUAGUACUACUCCUCAGAAGGGACAUGAGGAUCACCCAUGUUCCUC [Fiskers Ex 4 Super stable 44 mod 25] (puzzle: Exclusion 4) |  |  | 18.5 nM | 
CAGGAAGCGGAGGAUAUGAUGAAAACUCGGCAAUCAGAAGGCCGCACAUGAGGAUCACCCAUGUCGCAAAUACC [Eternabot (Original) Solution 36] (Eterna round: R97, puzzle: Exclusion 6) | 16.6 nM | 15.3 nM |  | 
CAGUACUGAGGAUAUACAUGAGGAUCACCCAUGUGGAGAGGAAAAGGAAGAAAAGAAGGUAGAAGGCGGUGCUG [JR_Ex3_Sub042] (Eterna round: R97, puzzle: Exclusion 3) | 196 nM | 40.8 nM |  | 
AAGAGAGCAGGAUAUCGGUUUUGCGACAUGAGGAUCACCCAUGUGAGCCGAGUCCAACGCCGAGAAGGGCUAAAAU [Onesis] (puzzle: Exclusion 5) |  |  | 53.3 nM | 
GCAUUUUGGUCGUCUUAUAACAUGAGGAUCACCCAUGUGUUGAGCCCAACUUAUUGUACUCAUGCUAUGGCCUGAUG [Eternabot (L2) Solution 27] (Eterna round: R97, puzzle: Sensor, turn-off variant 1) | 81.2 nM | 84.2 nM |  | 
GAGGAGCAAGGAUAUACGAGGAUAGGGAAGGUUGGAGAGUGACAUGAGGAUCACCCAUGUAGAAGGUGCAAGGG [JR_Exclu2_Sub095] (puzzle: Exclusion 2) |  |  | 108 nM | 
UAUUAACAAGCAAGAUCCUACAUGAGGAUCACCCAUGUGCUCGUCUUAUAAGGUACUGUGACGAAAGUCACGGUACC [Sensor 3, v1 - 70] (puzzle: Sensor v3, turn-off variant 1) |  |  | 42.9 nM | apparent KD of MS2 coat protein [3]: 294 nM; apparent KD of MS2 coat protein [4]: 251 nM
GGAUAAAAGACAGGAUAUACGCACCACUAACGAGUAGAAGGGUCACAUGAGGAUCACCCAUGUGAGUUCUCAAUAAGAAACACG [Prohibition 67 - Jieux - Exclusion NG 1] (Eterna round: R96, puzzle: Exclusion NG 1) | 14.2 nM | 17.3 nM |  | apparent KD of MS2 coat protein [2]: 16.9 nM
UAUUAGUAAGGAUAUGAGCCGUAGGACGAAAGUCCUACGGCUCAGAAGGUACAUGAGGAUCACCCAUGUUUAUU [Mod of Fisker 6 - Jieux - Exclusion 4] (Eterna round: R97, puzzle: Exclusion 4) | 22.5 nM | 15.9 nM |  | 
CUCAUUUGUCAGGAUAUCGUGUGGCUAAUUGUACGAGAAGGGACGACAUGAGGAUCACCCAUGUGGUCUUUGAG [JR_Ex6_Sub083] (Eterna round: R97, puzzle: Exclusion 6) | 196 nM | 54.8 nM |  | 
